Patent US20230054300A1 (PARIS SCIENCES ET LETTRES QUARTIER LATIN, published 2023)

B1: FRB protein (FRB subunit of the mTOR protein complex) having the sequence of SEQ ID NO: 6, with 4-azido-L-phenylalanine at position 2,020, conjugated to an … (other)
chain: GPLGSFILWHEMWHEGLEEASRLYFGERNVKGMFEVLEPLHAMMERGPQTLKETSFNQAYGRDLMEAQEWCRKYMKSGNVKDLTQAWDLYYHVFRRISKQLPQL
modifications: 4-azido-L-phenylalanine in place of alanine at position 2,020; the azide is click-coupled to the DBCO-dT at the 5' end of oligo-Tc (Oligo-Tc1, SEQ ID NO: 4), which is ligated to the double-stranded DNA molecule
notes: Free FRB added in solution (0-200 nM) is described as identical to the test molecule
B2: SNAP-gephyrin rC4 (other)
chain: MRGSHHHHHHGSACELSSGLEVLFQGPHMASMDKDCEMKRTTLDSPLGKLELSGCEQGLHEIKLLGKGTSAADAVEVPAPAAVLGGPEPLMQATAWLNAYFHQPEAIEEFPVPALHHPVFQQESFTRQVLWKLLKVVKFGEVISYQQLAALAGNPAATAAVKTALSGNPVPILIPCHRVVSSSGAVGGYEGGLAVKEWLLAHEGHRLGKPGLGSSGGTMATEGMILTNHDHQIRVGVLTVSDSCFRNLAEDRSGINLKDLVQDPSLLGGTISAYKIVPDEIEEIKETLIDWCDEKELNLILTTGGTGFAPRDVTPEATKEVIEREAPGMALAMLMGSLNVTPLGMLSRPVCGIRGKTLIINLPGSKKGSQECFQFILPALPHAIDLLRDAIVKVKEVHDELEDLPSPPPPLSPPPTTSPHKQTEDKGVQCEEEEEEKKDSGVASTEDSSSSHITAAALAAKIPDSIISRGVQVLPRDTASLSTTPSESPRAQATSRLSTASCPTPKARLPSCSSTYSVSEVQSRCSSKENILRASHSAVDITKVARRHRMSPFPLTSMDKAFITVLEMTPVLGTEIINYRDGMGRVLAQDVYAKDNLPPFPASVKDGYAVRAADGPGDRFIIGESQAGEQPTQTVMPGQVMRVTTGAPIPCGADAVVQVEDTELIRESDDGTEELEVRILVQARPGQDIRPIGHDIKRGECVLAKGTHMGPSEIGLLATVGVTEVEVNKFPVVAVMSTGNELLNPEDDLLPGKIRDSNRSTLLATIQEHGYPTINLGIVGDNPDDLLNALNEGISRADVIITSGGVSMGEKDYLKQVLDIDLHAQIHFGRVFMKPGLPTTFATLDIDGVRKIIFALPGNPVSAVVTCNLFVVPALRKMQGILDPRPTIIKARLSCDVKLDPRPEYHRCILTWHHQEPLPWAQSTGNQMSSRLMSMRSANGLLMLPPKTEQYVELHKGEVVDVMVIGRL
modifications: SNAP tag covalently bound (thioether) to the benzylguanine at an extremity of the DNA molecule
notes: also called Gephyrin construct rC4

What was measured:
[1] = target: T1, FKBP12 protein having the sequence of SEQ ID NO: 7, with 4-azido-L-phenylalanine at position 1, conjugated to … (Homo sapiens (Human), UniProt P62942 2-108, 4-azido-L-phenylalanine in place of methionine at position 1; the azide is click-coupled to the DBCO-dT at the 5' end of oligo-Tc (Oligo-Tc2, SEQ ID NO: 5), which is ligated to the double-stranded …); experiment: magnetic tweezers, force cycling, FHF=6 pN, T=303 K, 500 nM rapamycin
T1 construct: In the assay it is present as the binary complex with rapamycin (500 nM)
Description: (§1) At each passage at FLF=0.05 pN for time TLF=13 s, the test molecules associate, then, after passage at FHF=1.4 pN, they separate after a time indicated as t_HF-A. The high force is applied for time THF=155 s. […] C) Temporal monitoring of the extension of the double-stranded DNA molecule when the force is cycled between high value and low value (TS: schematic diagram of the FHF/FLF cycles). At each passage at FLF=0.05 pN for time TLF=14 s the test molecules associate and then, after passage at FHF=6 pN, they separate after a time indicated as t_HF-A. The high force is applied for time THF=125 s. […] The curves are provided for several temperatures: OT=29.1° C.; […]T=25.4° C.; ⋄ T=21.7° C.; x T=19.2° C. […] F) Variation of XD, the distance separating the transition state from the complex during dissociation, as a function of temperature. […] A linear fit in agreement with the Arrhenius-Bell model, ln[kD⁰]=A−ED/kBT, makes it possible to determine ED, the activation energy of the dissociation reaction.
(§2) Example 10 was performed either at 25° C. or at 30° C. in DB reaction buffer (20 mM K-Hepes pH 7.8, 100 mM KCl, 5 mM MgCl₂, 2 mM DTT, 0.1% Tween-20, 0.1 mg/ml BSA). Measurements were also performed at 19.2° C., 21.7° C., 25.4° C. and 29.1° C. (see FIG. 15E).

[2] = target: T1, FKBP12 protein having the sequence of …; experiment: magnetic tweezers, force cycling, FHF=1.4 pN, T=303 K, 500 nM rapamycin
Description: as §1, §2

[3] = target: T1, FKBP12 protein having the sequence of …; experiment: derived as kA=kD/KD; magnetic tweezers, FCF=0.04 pN, 25 °C, 500 nM rapamycin; derived as kA=kD/KD
Description: as §2
(§3) Said fraction of time spent by the test molecules in associated form is determined according to (Σt_{CF-A})/tₜₒₜₐₗ, where tₜₒₜₐₗ is the total time during which the fluctuations are recorded and analyzed.

[4] = target: T1, FKBP12 protein having the sequence of …; experiment: magnetic tweezers, force cycling, FHF=1.4 pN, T=298 K, 500 nM rapamycin; kD=1/<τD> averaged over several molecules
[5] = target: T1, FKBP12 protein having the sequence of …; experiment: magnetic tweezers, spontaneous fluctuations at constant force FCF=0.04 pN, 25 °C, 500 nM rapamycin; average over several DNA molecules and inversion; no free FRB in solution; FCF=0.04 pN, 25 C
Description: as §2

[6] = target: T1, FKBP12 protein having the sequence of …; experiment: magnetic tweezers, spontaneous fluctuations at FCF=0.04 pN, 25 °C, 500 nM rapamycin, with 0-200 nM free FRB in solution; average over concentrations; 0-200 nM free FRB in solution; averaged over concentrations
Description: as §2, §3

[7] = target: CLIP-PHloop protein (10xHis-CLIP-tagged glycine receptor β loop) (CLIP tag covalently bound (thioether) to the benzylcytosine at an extremity of the DNA molecule); experiment: single-molecule magnetic tweezers; SNAP-gephyrin and CLIP-PHloop attached to the DNA molecule; force cycling FLF=0.01 pN for 13 s / FHF=1.1 pN for 52 s; 19.2 °C; GB buffer [continued]
Sequence of CLIP-PHloop protein (10xHis-CLIP-tagged glycine receptor β loop) (CLIP tag covalently bound (thioether) to the benzylcytosine at an extremity of the DNA molecule) (chain, as listed by the source limits assumed): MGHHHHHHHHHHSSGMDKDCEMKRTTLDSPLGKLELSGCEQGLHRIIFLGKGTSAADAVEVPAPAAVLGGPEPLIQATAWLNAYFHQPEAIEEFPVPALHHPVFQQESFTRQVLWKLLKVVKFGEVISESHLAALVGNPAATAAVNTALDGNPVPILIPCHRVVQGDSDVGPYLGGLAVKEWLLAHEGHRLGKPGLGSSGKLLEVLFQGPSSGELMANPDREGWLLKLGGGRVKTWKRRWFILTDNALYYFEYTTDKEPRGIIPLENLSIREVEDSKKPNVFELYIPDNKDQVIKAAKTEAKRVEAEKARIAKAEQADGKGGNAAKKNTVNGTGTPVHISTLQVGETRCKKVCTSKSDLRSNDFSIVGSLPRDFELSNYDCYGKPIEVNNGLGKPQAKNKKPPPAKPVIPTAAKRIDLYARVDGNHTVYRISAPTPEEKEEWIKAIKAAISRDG
Description: HF corresponds to the application of a high force (“High Force”); LF corresponds to the application of a low force (“Low Force”). The test molecules can be either associated (A for “Associated”) or dissociated (D for “Dissociated”).

T1 sequence (P62942 other isoform, or with tags, fused parts or gaps limits assumed): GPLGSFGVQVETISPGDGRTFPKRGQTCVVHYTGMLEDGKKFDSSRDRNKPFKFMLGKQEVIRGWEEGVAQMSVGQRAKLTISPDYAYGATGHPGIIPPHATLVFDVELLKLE

Row | Binder | koff [1] | koff [2] | kon [3] | koff [4] | koff [5] | koff [6] | binding result [7]
1 | B1 | 0.0649 s⁻¹ | 0.0484 s⁻¹ | 4.5e+06 M⁻¹ s⁻¹ | 0.0322 s⁻¹ | 0.0341 s⁻¹ | 0.0327 s⁻¹ | 
2 | B2 |  |  |  |  |  |  | binds
